Experimental data published in patent publication US9051392 (dated 2015).
Where a chain is given by its changes, count along the chain named. Numbers in names are those of the source.

T1: Fas Pt 2 (deletion 52-96) (human, UniProt P25445)
T1 chain: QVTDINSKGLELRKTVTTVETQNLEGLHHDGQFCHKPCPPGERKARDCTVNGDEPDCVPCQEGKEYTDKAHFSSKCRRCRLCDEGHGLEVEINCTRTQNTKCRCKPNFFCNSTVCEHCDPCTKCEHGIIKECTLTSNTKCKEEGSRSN

T2: HA-Fas 1-210:GFP (human, UniProt P25445)
T2 chain: T1 chain

T3: p60ΔCD-GFP-HA (human, UniProt P19438)
T3 chain: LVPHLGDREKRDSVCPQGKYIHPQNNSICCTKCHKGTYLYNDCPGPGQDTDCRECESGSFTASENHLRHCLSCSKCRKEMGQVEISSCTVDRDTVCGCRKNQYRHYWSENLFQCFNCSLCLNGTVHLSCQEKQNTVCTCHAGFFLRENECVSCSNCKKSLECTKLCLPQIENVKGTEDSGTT

T4: Fas (human, UniProt P25445)
T4 chain: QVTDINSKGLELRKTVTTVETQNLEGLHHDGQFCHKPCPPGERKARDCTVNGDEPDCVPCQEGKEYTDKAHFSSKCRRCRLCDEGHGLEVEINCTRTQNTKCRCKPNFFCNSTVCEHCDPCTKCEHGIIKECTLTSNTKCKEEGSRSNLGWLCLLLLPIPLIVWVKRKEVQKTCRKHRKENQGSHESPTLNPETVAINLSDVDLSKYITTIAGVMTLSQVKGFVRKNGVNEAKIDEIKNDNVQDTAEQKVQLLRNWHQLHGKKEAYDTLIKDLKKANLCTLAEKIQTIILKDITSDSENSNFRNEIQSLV

B1: Fas ligand (trimerized) (protein)
chain: PSPPPEKKELRKVAHLTGKSNSRSMPLEWEDTYGIVLLSGVKYKKGGLVINETGLYFVYSKVYFRGQSCNNLPLSHKVYMRNSKYPQDLVMMEGKMMSYCTTGQMWARSSYLGAVFNLTSADHLYVNVSELSLVNFEESQTFFGLYKL
B2: Fas deletion 1-43 (protein)
chain: T1 chain
B3: Fas deletion 1-66 (protein)
chain: T1 chain
B4: p60ΔCD K32A (protein)
chain: T3 chain with K32A
B5: p60ΔCD KY19/20AA (protein)
chain: T3 chain with K19A, Y20A
B6: HVEMΔCD:GFP (protein)
chain: LPSCKEDEYPVGSECCPKCSPGYRVKEACGELTGTVCEPCPPGTYIAHLNGLSKCLQCQMCDPAMGLRASRNCSRTENAVCGCSPGHFCIVQDGDHCAACRAYATSSPGQRVQKGGTESQDTLCQNCPPGTFSPNGTLEECQHQTKCSWLVTKAGAGTSSSHWV

Columns and labels:
[1] = biological target: T1, Fas Pt 2 (deletion 52-96); test: FACS
[2] = biological target: B3; test: FACS
[3] = biological target: T2, HA-Fas 1-210:GFP; test: other (co-immunoprecipitation)
[4] = biological target: T3, p60ΔCD-GFP-HA; test: other (co-immunoprecipitation)
[5] = biological target: T4, Fas; test: other (co-immunoprecipitation)

binding result [3]	binding result [4]	Binder	also measured
–	–	B1	binding result [1]: no binding; binding result [2]: no binding
no binding	–	B2	–
no binding	–	B3	–
–	no binding	B4	–
–	no binding	B5	–
–	–	B6	binding result [5]: no binding
